In patent publication US20260008815A1, “CYCLIC PEPTIDE OR SALT THEREOF, AND USES THEREOF” (FUJIFILM Corporation, priority 2023, published 2026):
Bridge positions count the residues as written; N and C are the ends. Ends that are not written are not given here. COCH2 = acetyl group that carries the bridge

Target: T1, Recombinant Human FGFR2 alpha (IIIc) Fc Chimera Protein, CF (R&D systems, 712-FR-050) (human, UniProt P21802 22-377)
T1 construct: bought; not shown: Fc part of the chimera
Assay: ELISA on plate-bound FGFR2-Fc
Method: First, 5 ng of Recombinant Human FGFR2 alpha (IIIc) Fc Chimera Protein (R&D systems, 712-FR-050) was immobilized in each well of a 96-well plate, and blocked with Pierce Protein-Free (PBS) Blocking Buffer (Thermo, 37572), and a peptide diluted with Can Get Signal Immunoreaction Enhancer Solution I (TOYOBO, NKB-101) was then added and reacted at room temperature for 3 hours. After washing with 0.05% Tween 20-containing phosphate buffered saline (PBS), an anti-Myc antibody (Cell Signaling, 14038S) diluted with Can Get Signal Immunoreaction Enhancer Solution II (TOYOBO, NKB-101) was added and reacted at room temperature for 2 hours. After washing with 0.05% Tween 20-containing PBS, SuperSignal ELISA Femto Substrate (Thermo, 37075) was added, and the luminescence amount was measured. The dose-response relationship was calculated from using the difference between the luminescence amount in the well in which FGFR was immobilized and the luminescence amount in the well in which FGFR was not immobilized, and the concentration of the peptide at the time of reaction, and the binding affinity to FGFR was evaluated according to the following evaluation criteria. The evaluation result preferably satisfies the evaluation criteria A, B, or C.

T1 sequence (P21802 22-377, change not shown): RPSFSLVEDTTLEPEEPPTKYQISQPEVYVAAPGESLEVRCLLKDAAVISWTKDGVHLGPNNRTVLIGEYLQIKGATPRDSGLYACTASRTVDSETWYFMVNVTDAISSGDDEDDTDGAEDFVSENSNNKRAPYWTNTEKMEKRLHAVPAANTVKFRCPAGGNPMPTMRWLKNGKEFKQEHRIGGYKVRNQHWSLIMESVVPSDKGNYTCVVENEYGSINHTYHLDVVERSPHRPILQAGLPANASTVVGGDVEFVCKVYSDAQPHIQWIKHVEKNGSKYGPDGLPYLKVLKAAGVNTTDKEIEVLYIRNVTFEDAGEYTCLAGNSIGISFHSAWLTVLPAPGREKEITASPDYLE

| ELISA luminescence signal at 10 nmol/L peptide, relative to SEQ ID NO: 47 (=1) [ratio] | Binder |
| --- | --- |
| ≥ 0.7 | YCEGNYLDPEQYQYFIYFK(COCH2)Y (thioether 2-19) [cyclic peptide SEQ ID NO: 166] |
| 0.1 to 0.5 | YCEENQLDPEQYQYFIYFK(COCH2)Y (thioether 2-19 (inferred)) [cyclic peptide SEQ ID NO: 190] |
| ≥ 0.7 | YCEENHLDPEQYQYFIYFK(COCH2)Y (thioether 2-19 (inferred)) [cyclic peptide SEQ ID NO: 194] |
| ≥ 0.7 | YCEENYRDPEQYQYFIYFK(COCH2)Y (thioether 2-19 (inferred)) [cyclic peptide SEQ ID NO: 205] |
| ≥ 0.7 | YCENNYLDPEQYQYFIYFK(COCH2)Y (thioether 2-19 (inferred)) [cyclic peptide SEQ ID NO: 174] |
| ≥ 0.7 | YCEENYYDPEQYQYFIYFK(COCH2)Y (thioether 2-19 (inferred)) [cyclic peptide SEQ ID NO: 198] |
| ≥ 0.7 | YCEWNYLDPEQYQYFIYFK(COCH2)Y (thioether 2-19 (inferred)) [cyclic peptide SEQ ID NO: 173] |
| ≥ 0.7 | YCEENYFDPEQYQYFIYFK(COCH2)Y (thioether 2-19 (inferred)) [cyclic peptide SEQ ID NO: 197] |
| 0.1 to 0.5 | YCEENDLDPEQYQYFIYFK(COCH2)Y (thioether 2-19 (inferred)) [cyclic peptide SEQ ID NO: 192] |
| 0.1 to 0.5 | YCEEQYLDPEQYQYFIYFK(COCH2)Y (thioether 2-19 (inferred)) [cyclic peptide SEQ ID NO: 183] |
| 0.5 to 0.7 | YCEFNYLDPEQYQYFIYFK(COCH2)Y (thioether 2-19 (inferred)) [cyclic peptide SEQ ID NO: 171] |
| 0.1 to 0.5 | YCEEWYLDPEQYQYFIYFK(COCH2)Y (thioether 2-19 (inferred)) [cyclic peptide SEQ ID NO: 182] |
| 0.1 to 0.5 | YCEENSLDPEQYQYFIYFK(COCH2)Y (thioether 2-19 (inferred)) [cyclic peptide SEQ ID NO: 191] |
| 0.1 to 0.5 | YCEESYLDPEQYQYFIYFK(COCH2)Y (thioether 2-19 (inferred)) [cyclic peptide SEQ ID NO: 184] |
| ≥ 0.7 | YCEENYVDPEQYQYFIYFK(COCH2)Y (thioether 2-19 (inferred)) [cyclic peptide SEQ ID NO: 196] |
| ≥ 0.7 | YCEENFLDPEQYQYFIYFK(COCH2)Y (thioether 2-19 (inferred)) [cyclic peptide SEQ ID NO: 187] |
| 0.1 to 0.5 | YCEETYLDPEQYQYFIYFK(COCH2)Y (thioether 2-19 (inferred)) [cyclic peptide SEQ ID NO: 185] |
| ≥ 0.7 | YCERNYLDPEQYQYFIYFK(COCH2)Y (thioether 2-19 (inferred)) [cyclic peptide SEQ ID NO: 179] |
| ≥ 0.7 | YCEENYIDPEQYQYFIYFK(COCH2)Y (thioether 2-19 (inferred)) [cyclic peptide SEQ ID NO: 195] |
| 0.5 to 0.7 | YCEEGYLDPEQYQYFIYFK(COCH2)Y (thioether 2-19 (inferred)) [cyclic peptide SEQ ID NO: 181] |
| 0.1 to 0.5 | YCEENRLDPEQYQYFIYFK(COCH2)Y (thioether 2-19 (inferred)) [cyclic peptide SEQ ID NO: 193] |

| ELISA luminescence signal at 10 nmol/L peptide, relative to SEQ ID NO: 47 (=1) [ratio] | Binder |
| --- | --- |
| ≥ 0.7 | YCEPNYLDPEQYQYFIYFK(COCH2)Y (thioether 2-19) [cyclic peptide SEQ ID NO: 167] |
| ≥ 0.7 | YCEYNYLDPEQYQYFIYFK(COCH2)Y (thioether 2-19 (inferred)) [cyclic peptide SEQ ID NO: 172] |
| ≥ 0.7 | YCEENYHDPEQYQYFIYFK(COCH2)Y (thioether 2-19 (inferred)) [cyclic peptide SEQ ID NO: 206] |
| 0.1 to 0.5 | YCEENYEDPEQYQYFIYFK(COCH2)Y (thioether 2-19 (inferred)) [cyclic peptide SEQ ID NO: 204] |
| ≥ 0.7 | YCEHNYLDPEQYQYFIYFK(COCH2)Y (thioether 2-19 (inferred)) [cyclic peptide SEQ ID NO: 180] |
| ≥ 0.7 | YCEQNYLDPEQYQYFIYFK(COCH2)Y (thioether 2-19 (inferred)) [cyclic peptide SEQ ID NO: 175] |
| ≥ 0.7 | YCELNYLDPEQYQYFIYFK(COCH2)Y (thioether 2-19) [cyclic peptide SEQ ID NO: 168] |
| 0.5 to 0.7 | YCEENNLDPEQYQYFIYFK(COCH2)Y (thioether 2-19 (inferred)) [cyclic peptide SEQ ID NO: 189] |
| ≥ 0.7 | YCEINYLDPEQYQYFIYFK(COCH2)Y (thioether 2-19) [cyclic peptide SEQ ID NO: 169] |
| ≥ 0.7 | YCEENYTDPEQYQYFIYFK(COCH2)Y (thioether 2-19 (inferred)) [cyclic peptide SEQ ID NO: 203] |
| 0.5 to 0.7 | YCEENYSDPEQYQYFIYFK(COCH2)Y (thioether 2-19 (inferred)) [cyclic peptide SEQ ID NO: 202] |
| 0.1 to 0.5 | YCEENLLDPEQYQYFIYFK(COCH2)Y (thioether 2-19 (inferred)) [cyclic peptide SEQ ID NO: 186] |
| ≥ 0.7 | YCEENYLGPEQYQYFIYFK(COCH2)Y (thioether 2-19 (inferred)) [cyclic peptide SEQ ID NO: 207] |
| ≥ 0.7 | YCEENWLDPEQYQYFIYFK(COCH2)Y (thioether 2-19 (inferred)) [cyclic peptide SEQ ID NO: 188] |
| ≥ 0.7 | YCEENYWDPEQYQYFIYFK(COCH2)Y (thioether 2-19 (inferred)) [cyclic peptide SEQ ID NO: 199] |
| ≥ 0.7 | YCEVNYLDPEQYQYFIYFK(COCH2)Y (thioether 2-19) [cyclic peptide SEQ ID NO: 170] |
| ≥ 0.7 | YCEENYQDPEQYQYFIYFK(COCH2)Y (thioether 2-19 (inferred)) [cyclic peptide SEQ ID NO: 201] |
| ≥ 0.7 | YCETNYLDPEQYQYFIYFK(COCH2)Y (thioether 2-19 (inferred)) [cyclic peptide SEQ ID NO: 177] |
| ≥ 0.7 | YCEDNYLDPEQYQYFIYFK(COCH2)Y (thioether 2-19 (inferred)) [cyclic peptide SEQ ID NO: 178] |
| 0.1 to 0.5 | YCEENYNDPEQYQYFIYFK(COCH2)Y (thioether 2-19 (inferred)) [cyclic peptide SEQ ID NO: 200] |
| ≥ 0.7 | YCESNYLDPEQYQYFIYFK(COCH2)Y (thioether 2-19 (inferred)) [cyclic peptide SEQ ID NO: 176] |
